Measurements as given in IntAct's records for PubMed 20961850.

B1: Phospholipid-transporting ATPase ID (Homo sapiens), P98198 (parent)
chain: MTVPKEMPEKWARAQAPPSWSRKKPSWGTEEERRARANDREYNEKFQYASNCIKTSKYNILTFLPVNLFEQFQEVANTYFLFLLILQLIPQISSLSWFTTIVPLVLVLTITAVKDATDDYFRHKSDNQVNNRQSQVLINGILQQEQWMNVCVGDIIKLENNQFVAADLLLLSSSEPHGLCYIETAELDGETNMKVRQAIPVTSELGDISKLAKFDGEVICEPPNNKLDKFSGTLYWKENKFPLSNQNMLLRGCVLRNTEWCFGLVIFAGPDTKLMQNSGRTKFKRTSIDRLMNTLVLWIFGFLVCMGVILAIGNAIWEHEVGMRFQVYLPWDEAVDSAFFSGFLSFWSYIIILNTVVPISLYVSVEVIRLGHSYFINWDKKMFCMKKRTPAEARTTTLNEELGQVEYIFSDKTGTLTQNIMVFNKCSINGHSYGDVFDVLGHKAELGERPEPVDFSFNPLADKKFLFWDPSLLEAVKIGDPHTHEFFRLLSLCHTVMSEEKNEGELYYKAQSPDEGALVTAARNFGFVFRSRTPKTITVHEMGTAITYQLLAILDFNNIRKRMSVIVRNPEGKIRLYCKGADTILLDRLHHSTQELLNTTMDHLNEYAGEGLRTLVLAYKDLDEEYYEEWAERRLQASLAQDSREDRLASIYEEVENNMMLLGATAIEDKLQQGVPETIALLTLANIKIWVLTGDKQETAVNIGYSCKMLTDDMTEVFIVTGHTVLEVREELRKAREKMMDSSRSVGNGFTYQDKLSSSKLTSVLEAVAGEYALVINGHSLAHALEADMELEFLETACACKAVICCRVTPLQKAQVVELVKKYKKAVTLAIGDGANDVSMIKTAHIGVGISGQEGIQAVLASDYSFSQFKFLQRLLLVHGRWSYLRMCKFLCYFFYKNFAFTMVHFWFGFFCGFSAQTVYDQYFITLYNIVYTSLPVLAMGVFDQDVPEQRSMEYPKLYEPGQLNLLFNKREFFICIAQGIYTSVLMFFIPYGVFADATRDDGTQLADYQSFAVTVATSLVIVVSVQIGLDTGYWTAINHFFIWGSLAVYFAILFAMHSNGLFDMFPNQFRFVGNAQNTLAQPTVWLTIVLTTVVCIMPVVAFRFLRLNLKPDLSDTVRYTQLVRKKQKAQHRCMRRVGRTGSRRSGYAFSHQEGFGELIMSGKNMRLSSLALSSFTTRSSSSWIESLRRKKSDSASSPSGGADKPLKG
partner: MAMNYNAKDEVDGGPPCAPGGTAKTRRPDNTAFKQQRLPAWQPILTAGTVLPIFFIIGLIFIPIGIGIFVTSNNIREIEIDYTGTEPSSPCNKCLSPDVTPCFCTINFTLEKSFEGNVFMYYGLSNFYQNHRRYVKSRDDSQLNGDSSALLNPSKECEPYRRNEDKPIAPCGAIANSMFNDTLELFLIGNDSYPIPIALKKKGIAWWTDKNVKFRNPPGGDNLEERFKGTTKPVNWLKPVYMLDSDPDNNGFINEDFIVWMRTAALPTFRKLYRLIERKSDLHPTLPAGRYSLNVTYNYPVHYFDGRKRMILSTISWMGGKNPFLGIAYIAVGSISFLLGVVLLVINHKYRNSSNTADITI
B2: Phospholipid-transporting ATPase IC (Homo sapiens), O43520 (parent)
chain: MSTERDSETTFDEDSQPNDEVVPYSDDETEDELDDQGSAVEPEQNRVNREAEENREPFRKECTWQVKANDRKYHEQPHFMNTKFLCIKESKYANNAIKTYKYNAFTFIPMNLFEQFKRAANLYFLALLILQAVPQISTLAWYTTLVPLLVVLGVTAIKDLVDDVARHKMDKEINNRTCEVIKDGRFKVAKWKEIQVGDVIRLKKNDFVPADILLLSSSEPNSLCYVETAELDGETNLKFKMSLEITDQYLQREDTLATFDGFIECEEPNNRLDKFTGTLFWRNTSFPLDADKILLRGCVIRNTDFCHGLVIFAGADTKIMKNSGKTRFKRTKIDYLMNYMVYTIFVVLILLSAGLAIGHAYWEAQVGNSSWYLYDGEDDTPSYRGFLIFWGYIIVLNTMVPISLYVSVEVIRLGQSHFINWDLQMYYAEKDTPAKARTTTLNEQLGQIHYIFSDKTGTLTQNIMTFKKCCINGQIYGDHRDASQHNHNKIEQVDFSWNTYADGKLAFYDHYLIEQIQSGKEPEVRQFFFLLAVCHTVMVDRTDGQLNYQAASPDEGALVNAARNFGFAFLARTQNTITISELGTERTYNVLAILDFNSDRKRMSIIVRTPEGNIKLYCKGADTVIYERLHRMNPTKQETQDALDIFANETLRTLCLCYKEIEEKEFTEWNKKFMAASVASTNRDEALDKVYEEIEKDLILLGATAIEDKLQDGVPETISKLAKADIKIWVLTGDKKETAENIGFACELLTEDTTICYGEDINSLLHARMENQRNRGGVYAKFAPPVQESFFPPGGNRALIITGSWLNEILLEKKTKRNKILKLKFPRTEEERRMRTQSKRRLEAKKEQRQKNFVDLACECSAVICCRVTPKQKAMVVDLVKRYKKAITLAIGDGANDVNMIKTAHIGVGISGQEGMQAVMSSDYSFAQFRYLQRLLLVHGRWSYIRMCKFLRYFFYKNFAFTLVHFWYSFFNGYSAQTAYEDWFITLYNVLYTSLPVLLMGLLDQDVSDKLSLRFPGLYIVGQRDLLFNYKRFFVSLLHGVLTSMILFFIPLGAYLQTVGQDGEAPSDYQSFAVTIASALVITVNFQIGLDTSYWTFVNAFSIFGSIALYFGIMFDFHSAGIHVLFPSAFQFTGTASNALRQPYIWLTIILAVAVCLLPVVAIRFLSMTIWPSESDKIQKHRKRLKAEEQWQRRQQVFRRGVSTRRSAYAFSHQRGYADLISSGRSIRKKRSPLDAIVADGTAEYRRTGDS
partner: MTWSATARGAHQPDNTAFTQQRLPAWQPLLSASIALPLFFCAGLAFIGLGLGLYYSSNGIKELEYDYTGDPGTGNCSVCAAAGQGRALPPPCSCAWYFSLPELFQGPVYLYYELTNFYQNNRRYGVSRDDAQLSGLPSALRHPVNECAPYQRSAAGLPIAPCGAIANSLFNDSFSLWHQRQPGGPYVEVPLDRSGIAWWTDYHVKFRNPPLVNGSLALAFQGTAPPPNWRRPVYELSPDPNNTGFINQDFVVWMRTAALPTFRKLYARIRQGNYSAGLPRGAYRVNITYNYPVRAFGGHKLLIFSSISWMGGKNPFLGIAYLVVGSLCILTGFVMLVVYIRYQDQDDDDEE
B3: Phospholipid-transporting ATPase ID (Homo sapiens), P98198 (parent)
chain: B1 chain
partner: B2 partner
B4: Phospholipid-transporting ATPase IC (Homo sapiens), O43520 (parent)
chain: B2 chain
partner: B1 partner

Variants of: B1
Settings: with cc50a_human TMEM30A

Variant | effect of a mutation on the interaction
D411N | decreasing interaction strength

Variants of: B2
Settings: with cc50b_human TMEM30B

Variant | effect of a mutation on the interaction
D454N | decreasing interaction strength

Variants of: B3
Settings: with cc50b_human TMEM30B

Variant | effect of a mutation on the interaction
D411N | with no effect

Variants of: B4
Settings: with cc50a_human TMEM30A

Variant | effect of a mutation on the interaction
D454N | decreasing interaction strength
